Data as given in US20050196380A1, “Method for delivering therapeutic proteins to the intradermal compartment” (priority 2004, published 2005).

Tests used:
[1] = Bolus ID vs SC insulin in diabetic Yucatan Mini swine, serum insulin levels; format: in vivo; details: for PK profiles for regular and fast-acting insulin by the ID route / uptake by ID route compared with Lispro given by the traditional SC route: SS3_34
Experimental: Lilly Lispro is regarded as fast acting insulin, and has a slightly altered protein structure relative to native human insulin. Hoechst regular insulin, maintains the native human insulin protein structure that is chemically similar, but has slower uptake than Lispro when administered by the traditional SC route. Both insulin types were administered in bolus via the ID route to determine if any differences in uptake would be discernable by this route. 5 U of either insulin type were administered to the ID space using dermal access microdevice design SS3—34.
Thus, 5 U of Lilly Lispro fast-acting insulin was administered using dermal access design SS3—34. Additional microdevices of the same needle array configuration were fabricated whereby exposed needle lengths of the microdevice array, were lengthened to include arrays with needles lengths of 2 and 3 mm. The average total dermal thickness in Yucatan Mini swine ranges from 1.5-2.5 mm. Therefore insulin deposition is expected to be into the dermis, approximately at the dermal/SC interface, and below the dermis and within the SC for 1 mm, 2 mm, and 3 mm length needles respectively. Bolus insulin administration was as described in Example 6.2.
Bolus delivery of Lantus long-acting insulin was delivered via the ID route. Lantus is an insulin solution that forms microprecipitates at the administration site upon injection. […] Lantus insulin (10 U dose, 100 μL) was administered to diabetic Yucatan Mini pigs using the dermal access design SS3—34 and by the standard SC method as previously described. […] More importantly this supports the fact that the biological clearance mechanism in the body is not appreciably changed by the administration route, nor is the way in which that the drug substance is utilized. This is extremely important for drugs compounds that have a long circulating half-life (examples would be large soluble receptor compounds or other antibodies for cancer treatment, or chemically modified species such as PEGylated drugs).

[2] = ID vs SC infusion of PTH, weight normalized PTH plasma levels; format: in vivo
Experimental: An ID administration experiment was conducted using a peptide drug entity: human parathyroid hormone 1-34 (PTH). […] Control SC infusion was through a standard 31-gauge needle inserted into the SC space lateral to the skin using a “pinch-up” technique. ID infusion was through dermal access microdevice design SSB1—30 (a stainless steel 30-gauge needle bent at the tip at a 90° angle such that the available length for skin penetration was 1-2 mm). The needle outlet (the tip of the needle) was at a depth of 1.7-2.0 mm in the skin when the needle was inserted. A 0.64 mg/mL PTH solution was infused at a rate of 75 μL/hr. Flow rate was controlled via a Harvard syringe pump.

[3] = Slow-infusion ID vs SC insulin delivery in swine, serum insulin pharmacokinetics; format: in vivo
Experimental: Pharmacokinetic parameters of the delivered substances in accordance with the methods of the invention may be determined using methods known to one skilled in the art. An exemplary pharmacokinetic analysis of infusion data of a substance, e.g., insulin, delivered in accordance with the methods of the invention is carried out as follows. Stepwise nonlinear least-squares regression is used to analyze the insulin concentration-time data from each individual animal. Initially, an empirical biexponential equation is fit to the insulin concentration-time data for the negative control condition. This analysis assumes first-order release of residual insulin, and recovers parameters for the first-order rate constant for release, the residual insulin concentration at the release site, a lag time for release, and a first-order rate constant for elimination of insulin from the systemic circulation. The parameters recovered in this phase of the analysis are of no intrinsic importance, but merely account for the fraction of circulating insulin derived from endogenous sources.
The second step of the analysis involves fitting an explicit compartmental model to the insulin concentration-time data during and after subcutaneous or intradermal infusion. The scheme upon which the mathematical model is based is shown in the upper part of FIG. 1. Infusion of insulin proceeds from t=−0 to t=240-min; after a lag-time (tlag,2) absorption from the infusion site is mediated by a first-order process governed by the absorption rate constant ka. Insulin absorbes into the systemic circulation, distributes into an apparent volume V contaminated by an unknown fractional bioavailability F, and is eliminated according to a first-order rate constant K. The fitting routine recovered estimates of tlag,2, ka, V/F, and K; parameters associated with the disposition of endogenous insulin (CR, tlag,1, kR), which are recovered in the first step of the analysis, are treated as constants. Parameter estimates are reported as mean±SD. The significance of differences in specific parameters between the two different modes of insulin administration (subcutaneous versus intradermal infusion) are assessed with the paired Student's t-test.

blood glucose [4] = assay: Slow-infusion ID insulin delivery in swine, blood glucose response; details: ID infusion 2 U/hr, relative to negative controls and SC infusion
From the text: The distal end of the microneedle was placed into the plastic catheter and cemented in place with epoxy resin to form a depth-limiting hub. The needle outlet was positioned approximately 1 mm beyond the epoxy hub, thus limiting penetration of the needle outlet into the skin to approximately 1 mm, which corresponds to the depth of the intradermal space in swine. The catheter was attached to a MiniMed 507 insulin pump for control of fluid delivery. The distal end of the microneedle was placed into the plastic catheter and cemented in place with epoxy resin to form a death-limiting hub. The needle outlet was positioned approximately 1 mm beyond the epoxy hub, thus limiting penetration of the needle outlet into the skin to approximately 1 mm, which corresponds to the depth of the intradermal space in swine. […] The catheter was connected to an-external insulin infusion pump (MiniMed 507) via the integral Luer connection at the catheter outlet. The pump was filled with Humalog™ (Lispro) insulin (Eli Lilly, Indianapolis, Ind.) and the catheter and microneedle were primed with insulin according to the manufacturer's instructions. […] Blood samples were periodically withdrawn and analyzed for serum insulin concentration and blood glucose values.

blood glucose [5] = assay: Bolus ID vs SC insulin in diabetic Yucatan Mini swine, blood glucose; details: bolus 10 U, 100 μL
Experimental: Bolus delivery of Lilly Lispro fast acting insulin was performed using ID and SC bolus administration. The ID injection microdevice was dermal access array design SS3—34.10 international insulin units (U) corresponding to 100 μL volume respectively, were administered to diabetic Yucatan Minis swine. Test animals had been previously been rendered diabetic by chemical ablation of pancreatic islet cells, and were no longer able to secrete insulin. Test animals received their insulin injection either via the microneedle array or via a standard 30 G×½ in. needle inserted laterally into the SC tissue space. Circulating serum insulin levels were detected using a commercial chemiluminescent assay kit (Immulite, Los Angeles, Calif.) and blood glucose values were determined using blood glucose strips. ID injections were accomplished via hand pressure using an analytical microsyringe and were administered over approximately 60 sec.

[6] = Bolus ID delivery of GCSF to Yucatan minipigs, plasma GCSF by ELISA; format: in vivo; details: bolus ID relative to SC
Experimental: (§1) Bolus ID delivery of human granulocyte colony stimulating factor (GCSF) (Neupogen) was administered via dermal access microdevice designs SS3—34B (array) or SS1—34 (single needle) to Yucatan minipigs. Delivery rate was controlled via a Harvard syringe pump and was administered over a 1-2.5 min period. […] Administration via IV and SC delivery was performed as controls.

[7] = tested on: white blood cell (WBC) counts; assay: White blood cell expansion after GCSF administration; format: in vivo, Yucatan minipigs; details: ID, SC and IV delivery vs negative control
Experimental: as §1

[8] = 4 hour infusion, 0.64 mg/mL at 75 μL/hr
[9] = bolus 10 U, 100 μL, SS3_34 array vs SC needle

**Q.** Which results are given for “Hoechst regular insulin: regular insulin that maintains the native human insulin protein structure”?
**A.** PK profiles for regular and fast-acting insulin by the ID route ([1]; bolus 5 U): essentially identical; uptake by ID route compared with Lispro given by the traditional SC route ([1]; bolus 5 U): faster uptake

**Q.** With Lantus as the molecule, how does the “"burst" immediately after the ID insulin delivery, relative to SC” value ([1]; bolus 10 U dose, 100 μL) read?
**A.** The value was “slightly higher”.

**Q.** For “PTH: peptide drug entity: human parathyroid hormone 1-34”, which “plasma level following termination of infusion, ID” value ([2]; 2 hour clearance after 4 hour infusion) is on record?
**A.** The value was “rapid decrease”.

**Q.** And the “area under the curve (AUC) of weight normalized plasma level, ID vs SC” value [2, 8]?
**A.** Its value is “larger area under the curve”.

**Q.** And the “peak values at earlier sampling timepoints (15 and 30 min), ID vs SC” value [2, 8]?
**A.** The value was “higher peak values”.

**Q.** What does the source list for Lispro?
**A.** PK profiles for regular and fast-acting insulin by the ID route ([1]; bolus 5 U): essentially identical; uptake by ID route compared with Lispro given by the traditional SC route ([1]; bolus 5 U): faster uptake; PK profile as microneedle length is increased ([1]; bolus 5 U, needle lengths 1, 2 and 3 mm): more closely resemble SC administration; maximum concentration obtained (Cmax), ID vs SC [1, 9]: higher; time to maximum concentration (Tmax), ID vs SC [1, 9]: shorter; lag time prior to absorption (tlag) ([3]; ID infusion, 2 U/hr for 4 hr): 0.88 min; rate of uptake from the administration site, ka ([3]; ID infusion, 2 U/hr for 4 hr): 0.0666 min⁻¹; bioavailability, ID relative to SC administration ([3]; ID relative to SC infusion): approximately 1.3 fold; increase of rate of uptake from the administration site, ID vs SC ([3]; ID relative to SC infusion): approximately 3 fold; lag time prior to absorption (tlag) ([3]; SC infusion): 13.6 min; rate of uptake from the administration site, ka ([3]; SC infusion): 0.0225 min⁻¹; blood glucose drop (blood glucose [4]): improved relative to conventional SC infusion; decrease in blood glucose (BG), ID vs SC (blood glucose [5]): faster and greater changes in BG

B1: GCSF: human granulocyte colony stimulating factor (GCSF) (Neupogen) (protein, chains of the INN, looked up)
chain: MTPLGPASSLPQSFLLKCLEQVRKIQGDGAALQEKLCATYKLCHPEELVLLGHSLGIPWAPLSSCPSQALQLAGCLSQLHSGLFLYQGLLQALEGISPELGPTLDTLQLDVADFATTIWQQMEELGMAPALQPTQGAMPAFASAFQRRAGGVLVASHLQSFLEVSYRVLRHLAQP
**Q.** What does the source list for B1?
**A.** bioavailability increase (AUC), ID vs SC [6]: approximately 2 fold; white blood cell expansion (PD outcome) [7]: approximately equal PD outcomes
